Measurements reported in paper PMC5551578 (The Journal of Experimental Medicine, 2017).

B1: TT-Ab3 (antibody, V domains shown)
VH: EVQLVQSGAEVKKPGSSVKVSCKVSGGAFNSYAISWVRQAPGQGLEWMGGIIPILRTANYTEKFQGRVTINADKSTNTAYMELSKLRSEDTAVYYCARVWGTTVTKGPSQIKYYYYGMDVWGQGTTVTVSS
VL: DIQMTQSPSSLSASVGDRVTISCRASQSISNYLNWYHQKPGKAPKLLIYAASSLQSGVPSRFSGSGSGTDFTLTISSLQPEDFATYYCQQSYSTPLTFGGGTKVEIK
notes: IgG1
B2: TT-Ab9 (antibody, V domains shown)
VH: EVQLVESGGSLVQPGGSLRLSCVGTGFTFNTYWMSWVRQAPGKGLEWVANIKQDGREKHYVDSVMGRFTVSRDNAMNALYLQVNSLRVEDTAVYYCARGMTAWSLGGYQYDYWGQGTQVTVSS
VL: DIQMTQSPSSLSASVGDTVTITCRASQGIRSDLGWYQQRPGKAPKLLVYTASTLQTGVPSRFSGSGFGTDFTLTISSLQPEDFATYYCLQNYNYPRTFGQGTKVEIK
notes: IgG1
B3: TT-Ab10 (antibody, V domains shown)
VH: EVQLVESGGGLVQPGGSLRVSCGASGFTFANFWMSWVRQAPGKGLEWVANINQDGNERKYVDSVKGRFTISRDNDKNSLYLQMNSLRAEDTAVYFCAREYGSYWRTYYFDDWGQGTLVTVSS
VL: DIVMTQSPATLSLSPGERATLSCRASQSVSNYLAWYQQKPGQAPRLLIYDASNRASGTPARFSGSGFGTDFTLTISSLDPEDFAVYYCQQGSNWLTFGGGTKVEIK
notes: IgG1
B4: TT-Ab12 (antibody, V domains shown)
VH: QVQLQESGPGLVKPSETLSLTCNVSGASISRYYWAWIRQPPGKGLEWIGYIYDSGTTTYNTSLKSRVTISRDTSKNQFSLNMMSVTAADTAVYYCARARYYYDSTGYFYGWLDPWGQGRLVTVSF
VL: DIQMTQSPSTLSASVGDRVTITCRASQSINIWLAWYQQRPGKAPDLLIYKASTLQSGVPSRFSGSGSGTEFTLTISSVQPDDFATYYCQQYKSYSCSFGQGTKVEIN
notes: IgG1
B5: TT-Ab4 (antibody, V domains shown)
VH: EVQLVQSGAEMKKPGSSVKVSCRMSGGKFNNYAMSWVRQAPGQGLEWVGGIIPVLGTANYAQKFQDRVAITADKSTNTAYMELSSLRSDDTAVYYCARVWGTVVTQGPSQVQYNHYGMDVWGQGTTVTVSS
VL: DIQLTQSPSSLSASVGDRVTITCRATQSISSSLNWYQHKPGKAPNLLISAASNLQSGVPSRFSGSGSRTDFTLTITNLQPEDFATYYCQQSYTTPLTFGGGTKVEIK
notes: IgG1
B6: TT-Ab7 (antibody, V domains shown)
VH: EVQLVESGGGWVQPGGSLRLSCAASGFTFNSFGSYGMSWVRQAPGKGLEWVSHISASGAATYYADSVKGRFTISRDNSKNTLLLQMNDLRGEDTATYYCARSVQQYLGLLGYWGQGTLVTVSS
VL: QSVLTQSPSASASLGATVKLTCTLSSGHTNYAIAWHQLQPQKAPRYLLKISNDGSHKRGDGIPDRFSGSSSGAERYLTISSLQSEDEAEYYCQTWGAGMGMFGGGTKLTVL
notes: IgG1

molecular target: T1, tetanus toxoid (Clostridium tetani, production strain …, UniProt P04958, biotin (biotinylated antigen)); experiment: BLI
T1 construct: also called TT
T1 sequence (P04958 whole entry): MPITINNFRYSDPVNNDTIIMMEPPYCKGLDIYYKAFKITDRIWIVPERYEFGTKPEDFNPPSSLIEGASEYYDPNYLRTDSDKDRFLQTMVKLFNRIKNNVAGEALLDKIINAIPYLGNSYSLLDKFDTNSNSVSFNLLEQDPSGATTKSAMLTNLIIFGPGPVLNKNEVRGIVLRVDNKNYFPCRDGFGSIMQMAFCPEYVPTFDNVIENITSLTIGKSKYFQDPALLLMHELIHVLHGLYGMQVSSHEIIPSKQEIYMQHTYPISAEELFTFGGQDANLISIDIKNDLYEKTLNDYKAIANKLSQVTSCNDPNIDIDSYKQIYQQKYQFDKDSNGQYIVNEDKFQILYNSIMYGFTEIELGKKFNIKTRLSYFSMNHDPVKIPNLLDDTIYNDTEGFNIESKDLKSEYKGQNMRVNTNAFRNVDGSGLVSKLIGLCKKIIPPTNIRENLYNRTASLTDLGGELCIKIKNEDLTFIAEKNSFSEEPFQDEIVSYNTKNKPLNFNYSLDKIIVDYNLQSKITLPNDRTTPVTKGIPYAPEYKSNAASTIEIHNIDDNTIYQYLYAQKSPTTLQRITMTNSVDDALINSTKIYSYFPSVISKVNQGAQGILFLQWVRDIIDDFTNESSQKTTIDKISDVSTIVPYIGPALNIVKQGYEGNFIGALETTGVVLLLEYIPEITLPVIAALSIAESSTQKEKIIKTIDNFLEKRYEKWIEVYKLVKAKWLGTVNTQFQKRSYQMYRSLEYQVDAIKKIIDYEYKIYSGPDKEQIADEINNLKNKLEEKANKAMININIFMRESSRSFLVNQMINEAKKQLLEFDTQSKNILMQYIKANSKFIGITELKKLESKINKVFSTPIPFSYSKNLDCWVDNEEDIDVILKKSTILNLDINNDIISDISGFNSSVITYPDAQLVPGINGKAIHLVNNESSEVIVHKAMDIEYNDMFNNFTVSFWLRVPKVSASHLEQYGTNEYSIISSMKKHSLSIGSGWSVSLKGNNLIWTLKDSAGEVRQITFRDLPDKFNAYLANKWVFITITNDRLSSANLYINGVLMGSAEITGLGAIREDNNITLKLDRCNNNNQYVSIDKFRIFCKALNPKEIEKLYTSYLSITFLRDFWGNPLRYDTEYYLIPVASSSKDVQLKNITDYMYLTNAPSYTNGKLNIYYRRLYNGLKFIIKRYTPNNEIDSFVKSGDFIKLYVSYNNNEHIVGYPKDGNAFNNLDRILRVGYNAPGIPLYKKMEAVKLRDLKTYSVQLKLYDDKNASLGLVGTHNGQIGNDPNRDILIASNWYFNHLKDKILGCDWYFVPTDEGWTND

Binder	Kd [nM]	koff [s⁻¹]
B1	1.61	0.00013
B2	6.64	0.000919
B3	1.59	0.000243
B4	1.95	0.000307
B5	0.0137	2.27e-06
B6	0.0185	3.46e-06
